One molecule from article PMC6985287, “Novel Immunomodulatory Proteins Generated via Directed Evolution of Variant IgSF Domains” (Frontiers in Immunology, 2019) can be followed below.

This assay deals with T1, wild type human ICOSL-Fc fusion protein (human, UniProt O75144 19-256).
T1 construct: ICOS ligand (ICOSL), human, extracellular domain (ECD); secreted with the human immunoglobulin VH5-51 signal peptide; Fc dimer; also called WT ICOSL; WT ICOSL-Fc; source: Expi293F, transient expression, purified (Protein A, SEC); not shown: Fc (IgG1, lacking effector function), C-terminal, kept
T1 sequence (looked up): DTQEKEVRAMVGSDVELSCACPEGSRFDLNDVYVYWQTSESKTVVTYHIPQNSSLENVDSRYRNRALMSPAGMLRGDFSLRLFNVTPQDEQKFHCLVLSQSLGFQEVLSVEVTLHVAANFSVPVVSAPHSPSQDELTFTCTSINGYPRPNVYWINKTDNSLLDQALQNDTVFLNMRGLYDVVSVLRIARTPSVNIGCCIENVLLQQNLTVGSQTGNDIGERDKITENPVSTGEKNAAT
The assay is described as follows: BLI; ForteBio Octet QKe; receptor-Fc loaded on the sensor (Protein A sensors in the methods, anti-human capture AHC sensors in the table's footnote); ICOSL-Fc proteins in four-point titrations (100, 50, 25, 12.5 nM); global 1:1 fit; both partners Fc dimers, KD includes avidity. To be noted: both partners purified.

B1: human recombinant ICOS-Fc fusion protein (Fc fusion, UniProt Q9Y6W8 21-140, looked up)
chain: EINGSANYEMFIFHNGGVQILCKYPDIVQQFKMQLLKGGQILCDLTKTKGSGNTVSIKSLKFCHSQLSNNSVSFFLYNLDHSHANYYFCNLSIFDPPPFKVTLTGGYLHIYESQLCCQLK
notes: Inducible Costimulator (ICOS), human, soluble Fc fusion; also called soluble ICOS-Fc; source: bought: R&D Systems
In the case of B1, the Kd came to 0.883 nM.
